Experimental data published in IntAct's records for PubMed 20953186.

B1: E3 ubiquitin ligase TRAF3IP2 (Homo sapiens), O43734-2 (parent)
chain: MNRSIPVEVDESEPYPSQLLKPIPEYSPEEESEPPAPNIRNMAPNSLSAPTMLHNSSGDFSQAHSTLKLANHQRPVSRQVTCLRTQVLEDSEDSFCRRHPGLGKAFPSGCSAVSEPASESVVGALPAEHQFSFMEKRNQWLVSQLSAASPDTGHDSDKSDQSLPNASADSLGGSQEMVQRPQPHRNRAGLDLPTIDTGYDSQPQDVLGIRQLERPLPLTSVCYPQDLPRPLRSREFPQFEPQRYPACAQMLPPNLSPHAPWNYHYHCPGSPDHQVPYGHDYPRAAYQQVIQPALPGQPLPGASVRGLHPVQKVILNYPSPWDHEERPAQRDCSFPGLPRHQDQPHHQPPNRAGAPGESLECPAELRPQVPQPPSPAAVPRPPSNPPARGTLKTSNLPEELRKVFITYSMDTAMEVVKFVNFLLVNGFQTAIDIFEDRIRGIDIIKWMERYLRDKTVMIIVAISPKYKQDVEGAESQLDEDEHGLHTKYIHRMMQIEFIKQGSMNFRFIPVLFPNAKKEHVPTWLQNTHVYSWPKNKKNILLRLLREEEYVAPPRGPLPTLQVVPL
partner: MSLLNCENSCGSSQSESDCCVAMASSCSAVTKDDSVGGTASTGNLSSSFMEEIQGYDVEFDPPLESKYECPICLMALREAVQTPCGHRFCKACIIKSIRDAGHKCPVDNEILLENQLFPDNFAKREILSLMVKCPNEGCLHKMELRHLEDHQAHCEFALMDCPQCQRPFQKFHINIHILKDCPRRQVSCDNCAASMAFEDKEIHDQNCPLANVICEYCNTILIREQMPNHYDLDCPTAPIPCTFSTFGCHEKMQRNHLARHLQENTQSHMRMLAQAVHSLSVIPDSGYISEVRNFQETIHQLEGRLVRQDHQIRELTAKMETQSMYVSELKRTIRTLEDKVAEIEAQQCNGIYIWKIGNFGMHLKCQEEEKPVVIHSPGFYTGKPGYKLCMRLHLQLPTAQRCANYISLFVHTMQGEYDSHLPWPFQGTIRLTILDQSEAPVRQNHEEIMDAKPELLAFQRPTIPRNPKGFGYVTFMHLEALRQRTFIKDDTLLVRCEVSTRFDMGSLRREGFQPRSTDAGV

Variants of: B1
Conditions: with traf6_human TRAF6, Q9Y4K3

effect of a mutation on the interaction	Variant
disrupting interaction	D10N
